From publication PMC2948513 (PLoS ONE, 2010)
Blank lines part the entries; values can stand above or below the molecule they belong to. Non-standard residues stand in square brackets, D forms with d. No end group written: not given here. *: point of attachment. Biotin = O=C1N[C@H]2[C@H](CS[C@H]2CCCCC(=O)*)N1; pS = N[C@@H](COP(=O)(O)O)C(=O)O

Experiments:
[1] = target: Ezrin N-terminus, 1-310 (UniProt P15311); assay: biotin-peptide streptavidin-agarose pull-down, MBP blot; conditions: reference: non-phosphorylated NEP-NT peptide; sites S6
[2] = target: Ezrin N-terminus, 1-310 (UniProt P15311); assay: SPR, peptide on streptavidin chip; conditions: reference: non-phosphorylated NEP-NT peptide; sites S6
[3] = target: PTEN C-terminal domain, 367-403 (UniProt P60484); assay: SPR, peptide on streptavidin chip; conditions: reference: non-phosphorylated NEP-NT peptide; sites S6
[4] = target: PTEN C-terminal domain, 367-403 (UniProt P60484); assay: biotin-peptide streptavidin-agarose pull-down, PTEN blot; conditions: reference: non-phosphorylated NEP-NT peptide; sites S6
[5] = target: T1, fusion protein of the maltose binding protein (MBP) and the N-terminus of Ezrin (amino acids 1-310) (human, UniProt P15311 1-310); assay: SPR; Biacore3000; biotin-labeled NEP peptides coupled to streptavidin (SA) chip to ~1000 RU; HBS-P buffer (10 mM HEPES pH 7.4, 150 mM NaCl, 0.005% Surfactant P20), 25°C, 30 µl/min; reference surface without peptide subtracted; MBP Ezrin-NT 0.05-0.8 µM, GST PTEN-CT 1.6-12.8 µM; conditions: both partners purified
T1 construct: Ezrin, human, N-terminus, amino acids 1-310; Cloned into the EcoRI/SalI sites of pMAL-c2; also called MBP-Ezrin-NT; MBP Ezrin-NT; source: E. coli DH5α, precipitated by Amylose-resin

- binding against the reference [1]: same
- KD [2]: same; reference ∼5.8
- KD [3]: weaker; reference ∼0,71
- binding against the reference [4]: weaker
Molecule: Neprilysin (NEP, CD10) N-terminal cytoplasmic domain, 2-23 (from UniProt P08473) pSer6 peptide (pNEP-NT)

- Kd [5]: ~5.9 nM
B1: synthetic biotin-labeled peptide representing the N-terminal cytoplasmic domain (aa 2-23) of human NEP with serine 6 phosphorylated (peptide)
peptide: GKSE[pS]QMDITDINTPKPKKKQRK(Biotin)
notes: neprilysin (NEP, neutral endopeptidase 24.11, CD10), human, N-terminal cytoplasmic domain, amino acids 2-23, serine 6 phosphorylated; C-terminal lysine that carries the biotin, named in words only; It is surmised that the biotinylated lysine is an extra residue after aa 23; also called pNEP-NT; phosphorylated NEP-NT; source: synthetic peptide (Peptide Specialty Labs, Heidelberg)

- Kd [5]: ~5.8 nM
B2: synthetic biotin-labeled peptide representing the N-terminal cytoplasmic domain (aa 2-23) of human NEP, non-phosphorylated (peptide)
peptide: GKSESQMDITDINTPKPKKKQRK(Biotin)
notes: neprilysin (NEP, neutral endopeptidase 24.11, CD10), human, N-terminal cytoplasmic domain, amino acids 2-23; C-terminal lysine that carries the biotin, named in words only; It is surmised that the biotinylated lysine is an extra residue after aa 23; also called NEP-NT; non-phosphorylated NEP-NT; source: synthetic peptide (Peptide Specialty Labs, Heidelberg)
